# Measurements reported in patent US6984373B2, “Fibrin binding moieties useful as imaging agents” (Dyax Corp., priority 2000, dated 2006).
# * marks the point of attachment. HYNIC = NNc1ccc(C(=O)*)cn1
# System: human fibrin gel
# Assay: Gamma camera imaging of fibrin clot in rabbit femoral artery with 99mTc-labeled peptide
# Format: in vivo
# Details: tricine coligand
# Description: Preliminary imaging experiments were performed with ^99mTc-labeled DX-328 using tricine as a coligand. A human fibrin gel was formed around a small wire placed in the femoral artery of a rabbit. The radiolabeled imaging agent was injected into the ear vein of the rabbit, and images were taken using a gamma camera.
# The intensity of radioactivity in the pulmonary region is due to circulating imaging agent that has not yet cleared. By increasing the time between injection and imaging, the background in the pulmonary region and elsewhere should be reduced as the unbound imaging agent clears through the kidneys. Alternatively, the same effect could be achieved by decreasing the clearance time of the imaging agent. This could be accomplished by using EDDA as a coligand instead of tricine.
substance,measurement,setting,value
"Ac-WQPCPWESWTFCWDPGGGK(HYNIC)-NH2 (not fully specified (bridges); cysteine pairing not given here; also: 99mTc/tricine complex) [DX-328, HYNIC-labeled peptide, used 99mTc-labeled with tricine coligand]",route of excretion of agent unbound to the clot,rabbit,renally excreted
same,visualisation of clot in left thigh versus clot-free right thigh,"ear vein injection, human fibrin gel on wire in femoral artery",can clearly be seen
